What follows are substances tested against HLA-A*02:01 (Homo sapiens, UniProt P04439, D140Y/D185E/D98H/E176V/E277Q/G131W/G231S/I119V/I121R/I166T/I218V/L300P/L318F/N151K/N90K/P208A/P217A/Q86G/Q94H/R138H/R169H/T345S) (assay: MHC binding assay (UV-ligand exchange, β2m ELISA, peptide exchange yield)). Conditions: MHC class I binding score; binding to HLA-A*02:01 ranged by peptide exchange yield (UV-ligand exchange, β2m ELISA).
In short: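 Binding is expressed as peptide exchange yield: stabilized MHC complexes were quantified by β2m ELISA, with a 450 nm TMB read-out on streptavidin-coated plates. Complexes came from UV-ligand exchange, where UV irradiation cleaves a photolabile peptide so the candidate peptide can load.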

Peptide exchange	Substance
“++” (≧20% = ++)	380 (TLIEDEIATI; listed as Homo sapiens) [compound 380]
“++++” (≧75% = ++++)	178 (ALTEIAFVV; listed as Homo sapiens) [compound 178]
“++++” (≧75% = ++++)	4 (GIMEHITKI; listed as Homo sapiens) [compound 4]
“++++” (≧75% = ++++)	168 (KILDADIQL; listed as Homo sapiens) [compound 168]
“++” (≧20% = ++)	226 (MLYVVPIYL; listed as Homo sapiens) [compound 226]
“++++” (≧75% = ++++)	568 (TLYDIAHTPGV; listed as Homo sapiens) [compound 568]
“++++” (≧75% = ++++)	321 (GLFEDVTQPGILL; listed as Homo sapiens) [compound 321]
“++” (≧20% = ++)	269 (RVLEVGALQAV; listed as Homo sapiens) [compound 269]
“++” (≧20% = ++)	228 (AMQEYIAVV; listed as Homo sapiens) [compound 228]
“++” (≧20% = ++)	258 (ELAERVPAI; listed as Homo sapiens) [compound 258]
“++++” (≧75% = ++++)	466 (VLIANLEKL; listed as Homo sapiens) [compound 466]
“+++” (≧50 = +++)	426 (RLADKSVLV; listed as Homo sapiens) [compound 426]
“+++” (≧50 = +++)	39 (SVAPNLPAV; listed as Homo sapiens) [compound 39]
“+++” (≧50 = +++)	563 (WLLPYNGVTV; listed as Homo sapiens) [compound 563]
“+++” (≧50 = +++)	257 (SIFSAFLSV; listed as Homo sapiens) [compound 257]
“+++” (≧50 = +++)	206 (VLQEGKLQKLAQL; listed as Homo sapiens) [compound 206]
“++” (≧20% = ++)	63 (YLLPSGGSVTL; listed as Homo sapiens) [compound 63]
“+++” (≧50 = +++)	607 (RLYSGISGLEL; listed as Homo sapiens) [compound 607]
“+++” (≧50 = +++)	366 (RLLDMGETDLML; listed as Homo sapiens) [compound 366]
“+++” (≧50 = +++)	545 (LLADLLHNV; listed as Homo sapiens) [compound 545]
“+++” (≧50 = +++)	530 (VMYADIGGMDI; listed as Homo sapiens) [compound 530]
“+++” (≧50 = +++)	444 (GLLRDEALAEV; listed as Homo sapiens) [compound 444]
“++++” (≧75% = ++++)	77 (ILVEADGAWVV; listed as Homo sapiens) [compound 77]
“+++” (≧50 = +++)	314 (ALIAEGIALV; listed as Homo sapiens) [compound 314]
“+++” (≧50 = +++)	560 (ALWDIETGQQTTT; listed as Homo sapiens) [compound 560]
“++” (≧20% = ++)	504 (GLSDGNPSL; listed as Homo sapiens) [compound 504]

Peptide exchange	Substance
“+++” (≧50 = +++)	174 (ALAQYLITA; listed as Homo sapiens) [compound 174]
“+++” (≧50 = +++)	20 (RMIEYFIDV; listed as Homo sapiens) [compound 20]
“++++” (≧75% = ++++)	159 (GLVGNPLPSV; listed as Homo sapiens) [compound 159]
“++” (≧20% = ++)	253 (GLDAATATV; listed as Homo sapiens) [compound 253]
“+++” (≧50 = +++)	471 (YLYNNMIAKI; listed as Homo sapiens) [compound 471]
“+++” (≧50 = +++)	525 (VLLEAGEGLVTI; listed as Homo sapiens) [compound 525]
“+++” (≧50 = +++)	350 (ALLDVTHSELTV; listed as Homo sapiens) [compound 350]
“+++” (≧50 = +++)	149 (NLLELFVQL; listed as Homo sapiens) [compound 149]
“++” (≧20% = ++)	461 (VMFRTPLASV; listed as Homo sapiens) [compound 461]
“+++” (≧50 = +++)	619 (ALQDRVPLA; listed as Homo sapiens) [compound 619]
“+++” (≧50 = +++)	30 (LILDWVPYI; listed as Homo sapiens) [compound 30]
“++” (≧20% = ++)	432 (TLIEESAKV; listed as Homo sapiens) [compound 432]
“+++” (≧50 = +++)	484 (SLIEKVTQL; listed as Homo sapiens) [compound 484]
“+++” (≧50 = +++)	249 (LLDGFLVNV; listed as Homo sapiens) [compound 249]
“+++” (≧50 = +++)	155 (RVANLHFPSV; listed as Homo sapiens) [compound 155]
“+++” (≧50 = +++)	401 (ILLDDTGLAYI; listed as Homo sapiens) [compound 401]
“+++” (≧50 = +++)	496 (FLVEKQPPQV; listed as Homo sapiens) [compound 496]
“+++” (≧50 = +++)	316 (ILLERLWYV; listed as Homo sapiens) [compound 316]
“++” (≧20% = ++)	447 (QLVPALAKV; listed as Homo sapiens) [compound 447]
“+++” (≧50 = +++)	223 (ALLENIALYL; listed as Homo sapiens) [compound 223]
“++++” (≧75% = ++++)	347 (SLFKHDPAAWEA; listed as Homo sapiens) [compound 347]
“++++” (≧75% = ++++)	320 (KMFEFVEPLL; listed as Homo sapiens) [compound 320]
“++” (≧20% = ++)	559 (VTVPPGPSL; listed as Homo sapiens) [compound 559]
“+++” (≧50 = +++)	456 (LLIGHLERV; listed as Homo sapiens) [compound 456]
“+++” (≧50 = +++)	433 (AMLNEPWAV; listed as Homo sapiens) [compound 433]
“+++” (≧50 = +++)	86 (NLIGKIENV; listed as Homo sapiens) [compound 86]

Peptide exchange	Substance
“++” (≧20% = ++)	124 (ALYETELADA; listed as Homo sapiens) [compound 124]
“+++” (≧50 = +++)	287 (FLNEFFLNV; listed as Homo sapiens) [compound 287]
“++” (≧20% = ++)	379 (IMEGTLTRV; listed as Homo sapiens) [compound 379]
“+++” (≧50 = +++)	462 (KLAKQPETV; listed as Homo sapiens) [compound 462]
“+++” (≧50 = +++)	367 (SLQNHNHQL; listed as Homo sapiens) [compound 367]
“+++” (≧50 = +++)	85 (KMSELRVTL; listed as Homo sapiens) [compound 85]
“+++” (≧50 = +++)	529 (LLADELITV; listed as Homo sapiens) [compound 529]
“++” (≧20% = ++)	94 (YLIDIKTIAI; listed as Homo sapiens) [compound 94]
“+++” (≧50 = +++)	450 (FMIDASVHPTL; listed as Homo sapiens) [compound 450]
“++++” (≧75% = ++++)	611 (YLLDDGTLVV; listed as Homo sapiens) [compound 611]
“++” (≧20% = ++)	211 (LLWPGAALL; listed as Homo sapiens) [compound 211]
“+++” (≧50 = +++)	594 (IMLKGDNITL; listed as Homo sapiens) [compound 594]
“+” (≧10% = +)	153 (FLIANVLYL; listed as Homo sapiens) [compound 153]
“+++” (≧50 = +++)	252 (LLIGTDVSL; listed as Homo sapiens) [compound 252]
“++++” (≧75% = ++++)	89 (YILPTETIYV; listed as Homo sapiens) [compound 89]
“+++” (≧50 = +++)	246 (LLWEVVSQL; listed as Homo sapiens) [compound 246]
“+++” (≧50 = +++)	181 (LLWAGTAFQV; listed as Homo sapiens) [compound 181]
“+++” (≧50 = +++)	6 (VLVSDGVHSV; listed as Homo sapiens) [compound 6]
“++++” (≧75% = ++++)	10 (FLATFPLAAV; listed as Homo sapiens) [compound 10]
“+++” (≧50 = +++)	325 (FIMPATVADATAV; listed as Homo sapiens) [compound 325]
“++” (≧20% = ++)	80 (FLYDNLVESL; listed as Homo sapiens) [compound 80]
“+++” (≧50 = +++)	103 (TLAEEVVAL; listed as Homo sapiens) [compound 103]
“+++” (≧50 = +++)	326 (FLPEALDFV; listed as Homo sapiens) [compound 326]
“+++” (≧50 = +++)	208 (KISPVTFSV; listed as Homo sapiens) [compound 208]
“+++” (≧50 = +++)	582 (TLCDVILMV; listed as Homo sapiens) [compound 582]
“+++” (≧50 = +++)	75 (GLLEVMVNL; listed as Homo sapiens) [compound 75]
